This passage reports response results from PMC8215223.

Sequences and labels used below:
B1: GFP-WT-HOOK3 [human] / GM130 (endogenous) [human (endogenous in HeLa)] (parent)
chain 1: MFSVESLERAELCESLLTWIQTFNVDAPCQTVEDLTNGVVMAQVLQKIDPAYFDENWLNRIKTEVGDNWRLKISNLKKILKGILDYNHEILGQQINDFTLPDVNLIGEHSDAAELGRMLQLILGCAVNCEQKQEYIQAIMMMEESVQHVVMTAIQELMSKESPVSAGNDAYVDLDRQLKKTTEELNEALSAKEEIAQRCHELDMQVAALQEEKSSLLAENQVLMERLNQSDSIEDPNSPAGRRHLQLQTQLEQLQEETFRLEAAKDDYRIRCEELEKEISELRQQNDELTTLADEAQSLKDEIDVLRHSSDKVSKLEGQVESYKKKLEDLGDLRRQVKLLEEKNTMYMQNTVSLEEELRKANAARSQLETYKRQVVELQNRLSEESKKADKLDFEYKRLKEKVDSLQKEKDRLRTERDSLKETIEELRCVQAQEGQLTTQGLMPLGSQESSDSLAAEIVTPEIREKLIRLQHENKMLKLNQEGSDNEKIALLQSLLDDANLRKNELETENRLVNQRLLEVQSQVEELQKSLQDQGSKAEDSVLLKKKLEEHLEKLHEANNELQKKRAIIEDLEPRFNNSSLKIEELQEALRKKEEEMKQMEERYKKYLEKAKSVIRTLDPKQNQGAAPEIQALKNQLQERDRLFHSLEKEYEKTKSQREMEEKYIVSAWYNMGMTLHKKAAEDRLASTGSGQSFLARQRQATSSRRSYPGHVQPATAR
chain 2: MWPQPRLPPRPAMSEETRQSKLAAAKKKLREYQQRNSPGVPTGAKKKKKIKNGSNPETTTSGGCHSPEDTPKDNAATLQPSDDTVLPGGVPSPGASLTSMAASQNHDADNVPNLMDETKTFSSTESLRQLSQQLNGLVCESATCVNGEGPASSANLKDLESRYQQLAVALDSSYVTNKQLNITIEKLKQQNQEITDQLEEEKKECHQKQGALREQLQVHIQTIGILVSEKAELQTALAHTQHAARQKEGESEDLASRLQYSRRRVGELERALSAVSTQQKKADRYNKELTKERDALRLELYKNTQSNEDLKQEKSELEEKLRVLVTEKAGMQLNLEELQKKLEMTELLLQQFSSRCEAPDANQQLQQAMEERAQLEAHLGQVMESVRQLQMERDKYAENLKGESAMWRQRMQQMSEQVHTLREEKECSMSRVQELETSLAELRNQMAEPPPPEPPAGPSEVEQQLQAEAEHLRKELEGLAGQLQAQVQDNEGLSRLNREQEERLLELERAAELWGEQAEARRQILETMQNDRTTISRALSQNRELKEQLAELQSGFVKLTNENMEITSALQSEQHVKRELGKKLGELQEKLSELKETVELKSQEAQSLQQQRDQYLGHLQQYVAAYQQLTSEKEVLHNQLLLQTQLVDQLQQQEAQGKAVAEMARQELQETQERLEAATQQNQQLRAQLSLMAHPGEGDGLDREEEEDEEEEEEEAVAVPQPMPSIPEDLESREAMVAFFNSAVASAEEEQARLRGQLKEQRVRCRRLAHLLASAQKEPEAAAPAPGTGGDSVCGETHRALQGAMEKLQSRFMELMQEKADLKERVEELEHRCIQLSGETDTIGEYIALYQSQRAVLKERHREKEEYISRLAQDKEEMKVKLLELQELVLRLVGDRNEWHGRFLAAAQNPADEPTSGAPAPQELGAANQQGDLCEVSLAGSVEPAQGEAREGSPRDNPTAQQIMQLLREMQNPRERPGLGSNPCIPFFYRADENDEVKITVI

Variants of B1 are the subject of this experiment. Briefly: coIP (co-immunoprecipitation, blot band intensity quantified). As to conditions: with GM130 (endogenous) [human (endogenous in HeLa)]; HeLa cells, 100 ng/mL nocodazole for 16 hr (+); read off a plot.
On to chain 1 S238E, for which the response amounted to 12 A.U.

Consider chain 1 S238A, for which the response was 16 A.U.

With chain 1 S238E S707E, the response was determined as 6.5 A.U.

chain 1 S238A S707A: the response came to 5.5 A.U.

chain 1 S707E: the response was 11 A.U.

As to chain 1 S707A, the response was determined as 16 A.U.
